Assay results taken from paper PMC4612324.

Molecular target: Aβ 1-40 peptide (UniProt P05067)
Experiment: ELISA; Aβ1-40 peptide coated on Maxisorp plates (0.1 µg/ml, bicarbonate buffer pH 9.6); antibodies serially diluted in PBS/1 % BSA, 1 h at room temperature; detected with biotinylated anti-mouse IgG and streptavidin poly-HRP; relative affinity

“chGantenerumab (mouse/human chimeric version of Gantenerumab with mouse IgG2a constant region) (antibody)” showed an EC50 of 0.34 pM.
